This is an account of results in publication PMC5389614.

Like-named read-outs stand apart in the source and are kept apart here.

Data set [1] deals with T1, AgeI wt (UniProt Q9KHV6 1-278).
T1 sequence: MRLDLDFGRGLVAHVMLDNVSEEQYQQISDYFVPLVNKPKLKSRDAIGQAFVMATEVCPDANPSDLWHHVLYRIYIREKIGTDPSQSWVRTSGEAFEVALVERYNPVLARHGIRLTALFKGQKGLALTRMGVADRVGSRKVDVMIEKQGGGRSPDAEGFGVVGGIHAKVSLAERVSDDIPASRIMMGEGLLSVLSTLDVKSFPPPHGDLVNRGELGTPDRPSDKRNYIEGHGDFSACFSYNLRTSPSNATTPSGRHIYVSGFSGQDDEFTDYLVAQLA
The data set is described as follows: X-ray crystallography.

Data set [2] has as its target T1, AgeI wt. The data set is described as follows: X-ray crystallography. The source holds these as a separate data set.
For the next data set, the target named is T2, AgeI D178A (UniProt Q9KHV6 1-278, D178A).
T2 sequence: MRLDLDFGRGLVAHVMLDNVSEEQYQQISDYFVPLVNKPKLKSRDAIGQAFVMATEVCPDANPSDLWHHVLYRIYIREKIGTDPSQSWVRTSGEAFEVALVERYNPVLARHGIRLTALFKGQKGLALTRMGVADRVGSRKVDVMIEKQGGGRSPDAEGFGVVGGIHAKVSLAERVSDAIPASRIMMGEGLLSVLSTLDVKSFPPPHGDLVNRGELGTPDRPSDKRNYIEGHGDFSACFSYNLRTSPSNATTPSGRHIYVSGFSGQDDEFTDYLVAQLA
The data set is described as follows: EMSA. For orientation: Mobility shift assays separate free from complexed probe on a gel.

In another data set the target is T3, AgeI D223A (UniProt Q9KHV6 1-278, D223A).
T3 sequence: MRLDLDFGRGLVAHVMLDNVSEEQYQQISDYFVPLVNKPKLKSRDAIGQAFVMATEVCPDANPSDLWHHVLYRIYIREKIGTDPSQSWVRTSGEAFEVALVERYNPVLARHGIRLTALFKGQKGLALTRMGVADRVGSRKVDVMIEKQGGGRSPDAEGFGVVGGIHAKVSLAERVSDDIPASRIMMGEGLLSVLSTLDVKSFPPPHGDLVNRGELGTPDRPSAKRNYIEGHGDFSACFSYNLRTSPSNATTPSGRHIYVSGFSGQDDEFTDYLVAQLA
As to the kind of experiment: EMSA.

The next data set addresses T4, AgeI D177A (UniProt Q9KHV6 1-278, D177A).
T4 sequence: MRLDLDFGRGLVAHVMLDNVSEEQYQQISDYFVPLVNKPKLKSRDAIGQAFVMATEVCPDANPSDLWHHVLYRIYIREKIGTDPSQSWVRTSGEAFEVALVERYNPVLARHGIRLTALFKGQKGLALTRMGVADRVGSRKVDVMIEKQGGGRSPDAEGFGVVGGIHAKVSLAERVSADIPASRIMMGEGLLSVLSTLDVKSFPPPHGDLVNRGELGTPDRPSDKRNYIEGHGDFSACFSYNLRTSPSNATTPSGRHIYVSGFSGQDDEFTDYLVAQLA
The data set is described as follows: EMSA.

A further data set has as its target T5, AgeI S138A (UniProt Q9KHV6 1-278, S138A).
T5 sequence: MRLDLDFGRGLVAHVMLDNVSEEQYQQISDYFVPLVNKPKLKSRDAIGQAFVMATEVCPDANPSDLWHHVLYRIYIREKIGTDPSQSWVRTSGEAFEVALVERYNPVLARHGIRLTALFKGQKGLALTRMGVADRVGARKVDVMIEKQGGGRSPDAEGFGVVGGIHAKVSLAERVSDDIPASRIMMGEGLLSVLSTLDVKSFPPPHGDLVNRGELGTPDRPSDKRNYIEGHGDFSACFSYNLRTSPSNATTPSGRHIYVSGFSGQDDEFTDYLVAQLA
The data set is described as follows: EMSA.

Data set [3] has as its target T1, AgeI wt. The data set is described as follows: EMSA.
The target of a further data set is T6, AgeI D142A (UniProt Q9KHV6 1-278, D142A).
T6 sequence: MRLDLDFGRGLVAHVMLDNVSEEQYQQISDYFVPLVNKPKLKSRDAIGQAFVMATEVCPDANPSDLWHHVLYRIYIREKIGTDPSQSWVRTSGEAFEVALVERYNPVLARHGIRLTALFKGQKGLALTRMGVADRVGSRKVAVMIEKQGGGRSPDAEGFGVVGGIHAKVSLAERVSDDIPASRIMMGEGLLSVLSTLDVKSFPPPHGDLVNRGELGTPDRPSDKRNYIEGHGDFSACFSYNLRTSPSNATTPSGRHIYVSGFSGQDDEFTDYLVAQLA
As to the kind of experiment: EMSA.

The target in the next data set is T7, AgeI Q86A (UniProt Q9KHV6 1-278, Q86A).
T7 sequence: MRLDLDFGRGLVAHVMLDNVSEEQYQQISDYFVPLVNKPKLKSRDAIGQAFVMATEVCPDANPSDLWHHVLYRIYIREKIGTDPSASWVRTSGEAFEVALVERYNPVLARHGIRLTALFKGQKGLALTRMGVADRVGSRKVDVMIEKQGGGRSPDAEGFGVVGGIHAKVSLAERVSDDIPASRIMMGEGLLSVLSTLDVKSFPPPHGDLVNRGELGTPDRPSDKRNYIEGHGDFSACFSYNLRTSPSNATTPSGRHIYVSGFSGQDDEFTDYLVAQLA
As to the kind of experiment: EMSA.

B1: SP11 (dsDNA)
DNA 1: TCGACCGGTCG
DNA 2: TCGACCGGTCG
Consider B1, for which the binding result in the data set with AgeI wt [1] was “binds”.

B2: SP13 (dsDNA)
DNA 1: TTCGACCGGTCGA
DNA 2: TTCGACCGGTCGA
Take B2: in the data set with AgeI wt [2], the binding result is on record as “binds”.

B3: NC (non-canonical) (dsDNA)
DNA 1: AGACCCACGCTCACCGGATCCAGATTTATC
DNA 2: GATAAATCTGGATCCGGTGAGCGTGGGTCT
As for B3, the Kd in the data set with AgeI D178A was around 5 nM; in the data set with AgeI D223A it was around 5 nM; with AgeI D177A it was 14.7 ± 3.1 nM.

B4: SP (specific) (dsDNA)
DNA 1: AGACCCACGCTCACCGGTTCCAGATTTATC
DNA 2: GATAAATCTGGAACCGGTGAGCGTGGGTCT
On to B4, for which the Kd came out at 1 ± 0.3 nM with AgeI D178A; 1.2 ± 0.4 nM with AgeI D223A; 1.2 ± 0.2 nM with AgeI S138A; 0.9 ± 0.2 nM with AgeI wt [3]; 2.4 ± 0.8 nM with AgeI D142A; 19.5 ± 5.6 nM with AgeI D177A. The molecule also came in with a Kd in the data set with AgeI Q86A of 4.6 ± 1.4 nM.

Broadly, the Kd is the free concentration of one partner at which half of the binding sites on the other are occupied at equilibrium, for simple one-to-one binding. Read a low Kd as higher affinity.
